According to article PMC5392032 (Science Advances, 2017):

Target: the molecule itself
Assay: SEC-MALS

B1: Vps4^E233Q (ATP hydrolysis-deficient mutant of Saccharomyces cerevisiae vacuolar protein sorting-associated protein 4) (enzyme)
chain: KKSPSAGSGSNGGNKKISQEEGEDNGGEDNKKLRGALSSAILSEKPNVKWEDVAGLEGAKEALKEAVILPVKFPHLFKGNRKPTSGILLYGPPGTGKSYLAKAVATEANSTFFSVSSSDLVSKWMGESEKLVKQLFAMARENKPSIIFIDQVDALTGTRGEGESEASRRIKTELLVQMNGVGNDSQGVLVLGATNIPWQLDSAIRRRFERRIYIPLPDLAARTTMFEINVGDTPCVLTKEDYRTLGAMTEGYSGSDIAVVVKDALMQPIRKIQSATHFKDVSTEDDETRKLTPCSPGDDGAIEMSWTDIEADELKEPDLTIKDFLKAIKSTRPTVNEDDLLKQEQFTRDFGQEGN
B1 was tested, and the “stoichiometry N” value was 6.
